For two molecules, binding signal (fold reduction of omega vs major allele) and Kd results are on record in paper PMC6009666, “DNA-mediated dimerization on a compact sequence signature controls enhancer engagement and regulation by FOXA1”.

The Kd is the concentration at which binding is half-saturated.

The target in data set [1] is T1, FOXA1 DBD (Homo sapiens, UniProt P55317 158-272).
T1 sequence: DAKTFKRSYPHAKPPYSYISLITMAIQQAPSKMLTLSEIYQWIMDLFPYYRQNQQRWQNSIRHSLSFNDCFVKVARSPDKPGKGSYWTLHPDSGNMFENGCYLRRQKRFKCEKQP
Briefly: EMSA. As to conditions: monomer binding not affected; EMSA: 20 mM Tris-HCl pH 8.0, 100 mM KCl, 50 uM ZnCl2, 0.1 mg/ml BSA, 10% glycerol, 0.1% Igepal CA630, 2 mM beta-mercaptoethanol, 1 h at 4 C; 1-100 nM dsDNA; 12%. A general note: A gel shift assay detects complexes by their altered migration in electrophoresis.

The target in data set [2] is T1, FOXA1 DBD. Put plainly: EMSA; 1 nM DNA; monomer; n=3; EMSA: 20 mM Tris-HCl pH 8.0, 100 mM KCl, 50 uM ZnCl2, 0.1 mg/ml BSA, 10% glycerol, 0.1% Igepal CA630, 2 mM beta-mercaptoethanol, 1 h at 4 C; 1-100 nM dsDNA; 12% native PAGE (6% for full length). As to conditions: protein: recombinant; tags: His-tag implied (pNic28-Bsa4, Ni-NTA); label: 5' Cy5 forward strand.

As to rs2941742 minor allele, in data set [1], the binding signal (fold reduction of omega vs major allele) was 20.

B1: FOXA1 monomer element (dsDNA)
DNA 1: CCGCCGCCGTGTTTACTTTGCCGCCGCC
DNA 2: GGCGGCGGCAAAGTAAACACGGCGGCGG
Take B1: the Kd in data set [2] stood at 2.4 ± 1.06 nM.
